Results reported in US20260167718A1 (Merck Sharp & Dohme, published 2026).

T1: rhesus ILT3-His tagged recombinant protein (rhesus monkey (Macaca mulatta))
T1 construct: also called ILT3_MM; not shown: His tag
T1 chain: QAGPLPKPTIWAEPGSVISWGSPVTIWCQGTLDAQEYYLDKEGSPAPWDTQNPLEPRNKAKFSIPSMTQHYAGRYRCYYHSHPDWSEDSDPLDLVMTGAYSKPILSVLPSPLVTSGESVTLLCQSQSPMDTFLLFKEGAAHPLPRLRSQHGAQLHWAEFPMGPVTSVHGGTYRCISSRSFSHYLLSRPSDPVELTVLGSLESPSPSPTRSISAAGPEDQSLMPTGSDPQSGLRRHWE


Columns and labels:
[1] = target: T1, rhesus ILT3-His tagged recombinant …; assay: SPR (Biacore), rhesus ILT3-His
Description: (§1) The binding kinetics and affinities of anti-human ILT3 clones for human or rhesus ILT3-His tagged recombinant protein were measured by surface plasmon resonance using a Biacore™ T200 system (GE Healthcare, Piscataway, NJ). HBS-EP+ buffer (BR-1006-69) was used as the running buffer. Anti-human Fc antibody (Human Fc Capture Kit, BR100839, GE Healthcare) was immobilized via amine coupling chemistry in all four flow cells on a Series S CM5 sensor chip (BR100530 or 29149603, GE Healthcare) following manufacturer instructions. Flow cell 1 was used as reference for background subtraction and was not used for capture. […] Following each injection cycle, all four flow cells were regenerated using 30 second injection of 3M MgCl₂ solution at a flow rate of 10 μL/minute. Reference subtracted sensorgrams were fit to a 1:1 Langmuir Binding Model in the Biacore™ T200 Evaluation Software (Version 2.0) to determine the association (ka) and dissociation (kd) rate constants and the equilibrium dissociation constant KD (=kd/ka).

[2] = target: T2, Human ILT3 (LILRB4) extracellular domain with C-terminal His Tag (human, UniProt Q8NHJ6 22-259); assay: SPR (Biacore), human ILT3-His
T2 construct: the claims count residues 1-238 as the extracellular domain; also called human ILT3-His; ILT3_H
Description: as §1

Binder | Kd [1] | Kd [2] | binding result [1] | binding result [2]
Humanized anti-ILT3 mAb (52B8 VH1/VL1) IgG4 S228P/Kappa (antibody, V domains shown, also called mAb 1) VH: EVQLVESGGGLVQPGGSLRLSCAASGFTFSNYGMSWVRQAPGKGLEWVATISGGGDYTNYPDSMRGRFTISRDNAKNSLYLQMNSLRAEDTAVYYCGRRLWFRSLYYAMDYWGQGTLVTVSS VL: DIVLTQSPDSLAVSLGERATINCRASEKVDSFGNSFMHWYQQKPGQPPKLLIYLTSNLDSGVPDRFSGSGSRTDFTLTISSLQAEDVAVYYCQQNNEDPYTFGQGTKLEIKR | 25 nM | 0.99 nM | – | –
Humanized anti-ILT3 mAb (52B8 VH1 M64V W101Q/VL5 N34Q) IgG4 S228P/Kappa (antibody, V domains shown, also called mAb 61) VH: EVQLVESGGGLVQPGGSLRLSCAASGFTFSNYGMSWVRQAPGKGLEWVATISGGGDYTNYPDSVRGRFTISRDNAKNSLYLQMNSLRAEDTAVYYCGRRLQFRSLYYAMDYWGQGTLVTVSS VL: DIQLTQSPSSLSASVGDRVTITCRASEKVDSFGQSFMHWYQQKPGKAPKLLIYLTSNLDSGVPSRFSGSGSGTDFTLTISSLQPEDFATYYCQQNNEDPYTFGQGTKLEIKR | – | – | no binding (tested: ILT3-His injected up to 20 nM) | no binding (tested: ILT3-His injected up to 20 nM)
Humanized anti-ILT3 mAb (52B8 VH1 M64V W101Q/VL5 S35A) IgG4 S228P/Kappa (antibody, V domains shown, also called mAb 59) VH: EVQLVESGGGLVQPGGSLRLSCAASGFTFSNYGMSWVRQAPGKGLEWVATISGGGDYTNYPDSVRGRFTISRDNAKNSLYLQMNSLRAEDTAVYYCGRRLQFRSLYYAMDYWGQGTLVTVSS VL: DIQLTQSPSSLSASVGDRVTITCRASEKVDSFGNAFMHWYQQKPGKAPKLLIYLTSNLDSGVPSRFSGSGSGTDFTLTISSLQPEDFATYYCQQNNEDPYTFGQGTKLEIKR | – | – | no binding (tested: ILT3-His injected up to 20 nM) | no binding (tested: ILT3-His injected up to 20 nM)
Humanized anti-ILT3 mAb (52B8 VH1 M64V W101Q/VL5 S35N) IgG4 S228P/Kappa (antibody, V domains shown, also called mAb 60) VH: EVQLVESGGGLVQPGGSLRLSCAASGFTFSNYGMSWVRQAPGKGLEWVATISGGGDYTNYPDSVRGRFTISRDNAKNSLYLQMNSLRAEDTAVYYCGRRLQFRSLYYAMDYWGQGTLVTVSS VL: DIQLTQSPSSLSASVGDRVTITCRASEKVDSFGNNFMHWYQQKPGKAPKLLIYLTSNLDSGVPSRFSGSGSGTDFTLTISSLQPEDFATYYCQQNNEDPYTFGQGTKLEIKR | – | – | no binding (tested: ILT3-His injected up to 20 nM) | no binding (tested: ILT3-His injected up to 20 nM)
Humanized anti-ILT3 mAb (52B8 VH1 M64L/VL1) IgG4 S228P/Kappa (antibody, V domains shown, also called mAb 17) VH: EVQLVESGGGLVQPGGSLRLSCAASGFTFSNYGMSWVRQAPGKGLEWVATISGGGDYTNYPDSLRGRFTISRDNAKNSLYLQMNSLRAEDTAVYYCGRRLWFRSLYYAMDYWGQGTLVTVSS VL: DIVLTQSPDSLAVSLGERATINCRASEKVDSFGNSFMHWYQQKPGQPPKLLIYLTSNLDSGVPDRFSGSGSRTDFTLTISSLQAEDVAVYYCQQNNEDPYTFGQGTKLEIKR | 24 nM | 0.87 nM | – | –
Humanized anti-ILT3 mAb (52B8 VH1 M64V W101F/VL5 N34Q) IgG4 S228P/Kappa (antibody, V domains shown, also called mAb 53) VH: EVQLVESGGGLVQPGGSLRLSCAASGFTFSNYGMSWVRQAPGKGLEWVATISGGGDYTNYPDSVRGRFTISRDNAKNSLYLQMNSLRAEDTAVYYCGRRLFFRSLYYAMDYWGQGTLVTVSS VL: DIQLTQSPSSLSASVGDRVTITCRASEKVDSFGQSFMHWYQQKPGKAPKLLIYLTSNLDSGVPSRFSGSGSGTDFTLTISSLQPEDFATYYCQQNNEDPYTFGQGTKLEIKR | – | 35 nM | no binding (tested: ILT3-His injected up to 20 nM) | –
Humanized anti-ILT3 mAb (52B8 VH1 M64V W101Y/VL5 N34Q) IgG4 S228P/Kappa (antibody, V domains shown, also called mAb 57) VH: EVQLVESGGGLVQPGGSLRLSCAASGFTFSNYGMSWVRQAPGKGLEWVATISGGGDYTNYPDSVRGRFTISRDNAKNSLYLQMNSLRAEDTAVYYCGRRLYFRSLYYAMDYWGQGTLVTVSS VL: DIQLTQSPSSLSASVGDRVTITCRASEKVDSFGQSFMHWYQQKPGKAPKLLIYLTSNLDSGVPSRFSGSGSGTDFTLTISSLQPEDFATYYCQQNNEDPYTFGQGTKLEIKR | – | – | no binding (tested: ILT3-His injected up to 20 nM) | no binding (tested: ILT3-His injected up to 20 nM)
Humanized anti-ILT3 mAb (52B8 VH1 M64V/VL1) IgG4 S228P/Kappa (antibody, V domains shown, also called mAb 9) VH: EVQLVESGGGLVQPGGSLRLSCAASGFTFSNYGMSWVRQAPGKGLEWVATISGGGDYTNYPDSVRGRFTISRDNAKNSLYLQMNSLRAEDTAVYYCGRRLWFRSLYYAMDYWGQGTLVTVSS VL: DIVLTQSPDSLAVSLGERATINCRASEKVDSFGNSFMHWYQQKPGQPPKLLIYLTSNLDSGVPDRFSGSGSRTDFTLTISSLQAEDVAVYYCQQNNEDPYTFGQGTKLEIKR | 26 nM | 0.94 nM | – | –
Humanized anti-ILT3 mAb (52B8 VH2/VL1) IgG4 S228P/Kappa (antibody, V domains shown) VH: EVQLVESGGGLVQPGGSLRLSCAASGFTFSNYGMSWVRQAPGKGLEWVATISGGGDYTNYPDSMRGRFTISRDNAKNSLYLQMNSLKAEDTAVYYCGRRLWFRSLYYAMDYWGQGTLVTVSS VL: DIVLTQSPDSLAVSLGERATINCRASEKVDSFGNSFMHWYQQKPGQPPKLLIYLTSNLDSGVPDRFSGSGSRTDFTLTISSLQAEDVAVYYCQQNNEDPYTFGQGTKLEIKR | 25 nM | 0.94 nM | – | –
Humanized anti-ILT3 mAb (52B8 VH2 M64V/VL1) IgG4 S228P/Kappa (antibody, V domains shown, also called mAb 13) VH: EVQLVESGGGLVQPGGSLRLSCAASGFTFSNYGMSWVRQAPGKGLEWVATISGGGDYTNYPDSVRGRFTISRDNAKNSLYLQMNSLKAEDTAVYYCGRRLWFRSLYYAMDYWGQGTLVTVSS VL: DIVLTQSPDSLAVSLGERATINCRASEKVDSFGNSFMHWYQQKPGQPPKLLIYLTSNLDSGVPDRFSGSGSRTDFTLTISSLQAEDVAVYYCQQNNEDPYTFGQGTKLEIKR | 25 nM | 0.94 nM | – | –
Humanized anti-ILT3 mAb (52B8 VH1 M64V W101F/VL5 S35A) IgG4 S228P/Kappa (antibody, V domains shown, also called mAb 51) VH: EVQLVESGGGLVQPGGSLRLSCAASGFTFSNYGMSWVRQAPGKGLEWVATISGGGDYTNYPDSVRGRFTISRDNAKNSLYLQMNSLRAEDTAVYYCGRRLFFRSLYYAMDYWGQGTLVTVSS VL: DIQLTQSPSSLSASVGDRVTITCRASEKVDSFGNAFMHWYQQKPGKAPKLLIYLTSNLDSGVPSRFSGSGSGTDFTLTISSLQPEDFATYYCQQNNEDPYTFGQGTKLEIKR | – | – | no binding (tested: ILT3-His injected up to 20 nM) | no binding (tested: ILT3-His injected up to 20 nM)
Humanized anti-ILT3 mAb (52B8 VH1 M64V W101Y/VL5 N34D) IgG4 S228P/Kappa (antibody, V domains shown, also called mAb 58) VH: EVQLVESGGGLVQPGGSLRLSCAASGFTFSNYGMSWVRQAPGKGLEWVATISGGGDYTNYPDSVRGRFTISRDNAKNSLYLQMNSLRAEDTAVYYCGRRLYFRSLYYAMDYWGQGTLVTVSS VL: DIQLTQSPSSLSASVGDRVTITCRASEKVDSFGDSFMHWYQQKPGKAPKLLIYLTSNLDSGVPSRFSGSGSGTDFTLTISSLQPEDFATYYCQQNNEDPYTFGQGTKLEIKR | – | – | no binding (tested: ILT3-His injected up to 20 nM) | no binding (tested: ILT3-His injected up to 20 nM)
Humanized anti-ILT3 mAb (52B8 VH1 M64V W101Q/VL5 N34D) IgG4 S228P/Kappa (antibody, V domains shown, also called mAb 62) VH: EVQLVESGGGLVQPGGSLRLSCAASGFTFSNYGMSWVRQAPGKGLEWVATISGGGDYTNYPDSVRGRFTISRDNAKNSLYLQMNSLRAEDTAVYYCGRRLQFRSLYYAMDYWGQGTLVTVSS VL: DIQLTQSPSSLSASVGDRVTITCRASEKVDSFGDSFMHWYQQKPGKAPKLLIYLTSNLDSGVPSRFSGSGSGTDFTLTISSLQPEDFATYYCQQNNEDPYTFGQGTKLEIKR | – | – | no binding (tested: ILT3-His injected up to 20 nM) | no binding (tested: ILT3-His injected up to 20 nM)
Humanized anti-ILT3 mAb (52B8 VH1 M64V W101Y/VL5 S35A) IgG4 S228P/Kappa (antibody, V domains shown, also called mAb 55) VH: EVQLVESGGGLVQPGGSLRLSCAASGFTFSNYGMSWVRQAPGKGLEWVATISGGGDYTNYPDSVRGRFTISRDNAKNSLYLQMNSLRAEDTAVYYCGRRLYFRSLYYAMDYWGQGTLVTVSS VL: DIQLTQSPSSLSASVGDRVTITCRASEKVDSFGNAFMHWYQQKPGKAPKLLIYLTSNLDSGVPSRFSGSGSGTDFTLTISSLQPEDFATYYCQQNNEDPYTFGQGTKLEIKR | – | – | no binding (tested: ILT3-His injected up to 20 nM) | no binding (tested: ILT3-His injected up to 20 nM)
Humanized anti-ILT3 mAb (52B8 VH1 M64V W101F/VL5 N34D) IgG4 S228P/Kappa (antibody, V domains shown, also called mAb 54) VH: EVQLVESGGGLVQPGGSLRLSCAASGFTFSNYGMSWVRQAPGKGLEWVATISGGGDYTNYPDSVRGRFTISRDNAKNSLYLQMNSLRAEDTAVYYCGRRLFFRSLYYAMDYWGQGTLVTVSS VL: DIQLTQSPSSLSASVGDRVTITCRASEKVDSFGDSFMHWYQQKPGKAPKLLIYLTSNLDSGVPSRFSGSGSGTDFTLTISSLQPEDFATYYCQQNNEDPYTFGQGTKLEIKR | – | – | no binding (tested: ILT3-His injected up to 20 nM) | no binding (tested: ILT3-His injected up to 20 nM)
Humanized anti-ILT3 mAb (52B8 VH1 M64V W101F/VL5 S35N) IgG4 S228P/Kappa (antibody, V domains shown) VH: EVQLVESGGGLVQPGGSLRLSCAASGFTFSNYGMSWVRQAPGKGLEWVATISGGGDYTNYPDSVRGRFTISRDNAKNSLYLQMNSLRAEDTAVYYCGRRLFFRSLYYAMDYWGQGTLVTVSS VL: DIQLTQSPSSLSASVGDRVTITCRASEKVDSFGNNFMHWYQQKPGKAPKLLIYLTSNLDSGVPSRFSGSGSGTDFTLTISSLQPEDFATYYCQQNNEDPYTFGQGTKLEIKR | – | – | no binding (tested: ILT3-His injected up to 20 nM) | no binding (tested: ILT3-His injected up to 20 nM)
